Experimental data published in publication PMC12330381, “Evolutionarily diverse caveolins share a common structural framework built around amphipathic disks” (The Journal of Cell Biology, 2025).

Columns and labels:
[1] = target: S. rosetta caveolin (Salpingoeca rosetta); experiment: cryo-EM structure; single-particle cryo-EM of the complex purified in C12M detergent; C11 symmetry applied in the final refinement
[2] = target: the molecule itself; experiment: as above

Row | Molecule | stoichiometry N [1] | stoichiometry N [2]
1 | S. rosetta caveolin (natural protein) | 11 | 
2 | S. purpuratus caveolin (natural protein, Strongylocentrotus purpuratus, UniProt A0A7M7T4C2 1-159, looked up, caveolin of Strongylocentrotus purpuratus (purple sea urchin), UniProt A0A7M7T4C2, entire polypeptide (residues 1-159); residues 29-152 modelled in the cryo-EM map; Cloned between NdeI and XhoI of pET20b(+) with a reverse primer without stop codon, so the His tag is probably C-terminal (surmised); also called Strongylocentrotus purpuratus caveolin; Type I-CAV; source: E. coli BL21, purified from …) MELIHPENGPSGTVQVPLIQGVDQSDTEDVYRLSPHVTTGFADTFKESNDIMGFSFMEKVNGAIYKYTHFAFYAVLNLLLAPFIAFSFGLSFAVMHFAVVWFVQPIMKLYYVWLRVFNLAYEPALRLVCDPIHRSIALILSGIKGQFKMNSSDVKTSQV |  | 11
